Assay results published in doi:10.1101/2024.07.08.602551.
pKd: −log10 of the molar value.

Columns and labels:
[1] = target: human Twisted gastrulation (residues Cys26-Phe223) (human) (UniProt Q9GZX9); test: SPR
[2] = target: human Twisted gastrulation Leu107Ala (human) (UniProt Q9GZX9); test: SPR
Chain of human Twisted gastrulation Leu107Ala (human) (Q9GZX9 26-223 L107A): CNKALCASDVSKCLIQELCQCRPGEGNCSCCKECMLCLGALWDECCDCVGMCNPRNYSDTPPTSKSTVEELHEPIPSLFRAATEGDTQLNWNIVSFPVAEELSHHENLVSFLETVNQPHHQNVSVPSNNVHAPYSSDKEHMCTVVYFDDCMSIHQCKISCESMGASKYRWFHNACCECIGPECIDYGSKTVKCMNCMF

Chain of human Twisted gastrulation (residues Cys26-Phe223) (human) (Q9GZX9 26-223): as the sequence (Q9GZX9 26-223 L107A) above, with A82L counted along it

pKd [1]: 8.30 | pKd [2]: 7.96
Substance: human CHRDL2 (Arg24-Thr429) (natural protein)
